For orientation: stoichiometry N means the number of molecules, sites or subunits per partner or assembly.

The values that follow come from article PMC12561426, “Dissecting the Interplay Between NRF2 and BACH1 at CsMBEs” (Antioxidants, 2025).

In data set [1] the target is T1, sMafG^DBD released by TEV from NRF2-sMafGχ or BACH1-sMafGχ (human, UniProt O15525 1-162).
T1 construct: small Maf protein G (sMafG), human, residues 1-162, the C-terminal half of the chimeric constructs; also called sMafG of NRF2/sMafG and BACH1/sMafG; sMafG^DBDχ; source: E. coli One Shot BL21 Star (DE3), purified as the chimera (HisTrap, heparin, SEC); cut from the chimera by 3C and TEV in the assay; not shown: linker with 6xHis and TEV site, N-terminal, cleaved
Put plainly: native gel or EMSA; chimeric constructs (0-300 nM) titrated on fluorescein-labelled CsMBE dsDNA (3 nM) with TEV and 3C proteases 4 h at 25 C; 150 mM NaCl, 50 mM HEPES pH 7.9, 10% glycerol, 1 mM TCEP, 1 mM DTT, 2 mM MgCl2; 6% non-denaturing gel; heterodimer on DNA. The following applies: both partners purified.

Data set [2] addresses T2, sMafG^YbbR (fluorescein-labelled sMafG^DBD-YbbR released by TEV from NRF2-TEV-sMafGχ^YbbR or … (human, UniProt O15525 1-162, fluorescein (CoA-fluorescein conjugate put on the YbbR tag by Sfp))).
T2 construct: small Maf protein G (sMafG), human, residues 1-162, the C-terminal half of the chimeric constructs; source: cut from the chimera by TEV in the assay; not shown: linker with 6xHis and TEV site, N-terminal, cleaved
The data set is described as follows: native gel or EMSA; competition: fluorescein-labelled chimera (150 nM) assembled on Cy5-labelled dsDNA (3 nM) with TEV and 3C 4 h at 25 C, then the DBD competitor (150 nM-1.5 uM) added, overnight at 4 C; 10% non-denaturing gel, Cy5 and fluorescein scans. The following applies: both partners purified.

Data set [3] concerns the molecule itself. Put plainly: SEC-MALS; Superdex 75 increase 10/300, 50 mM HEPES pH 7.9, 2 mM TCEP, 500 mM NaCl, 1-2 mg protein injected; without DNA.

B1: BACH1^DBD released by 3C from BACH1-sMafGχ (domain or fragment)
chain: not shown
notes: also called BACH1 of BACH1/sMafG; source: E. coli One Shot BL21 Star (DE3), purified as the chimera (HisTrap, heparin, SEC); cut from the chimera by 3C and TEV in the assay; not shown: linker with 3C site and 6xHis, C-terminal, cleaved
For the molecule B1, the binding result in data set [1] is recorded as “binds”.

B2: BACH1^DBD with the uncleaved 6xHis linker (released by TEV from BACH1-TEV-sMafGχ^YbbR) (domain or fragment)
chain: not shown
notes: The linker stays on this chain and gives the supershift; also called BACH1^DBD-6xHis-TEV; BACH1 of BACH1/sMafG^YbbR; source: cut from the chimera by TEV in the assay; not shown: linker with 6xHis (3C site removed, up to the TEV site), C-terminal, kept
Take B2: the binding result in data set [2] is given as “binds”.

B3: NRF2^DBD with the uncleaved 6xHis linker (released by TEV from NRF2-TEV-sMafGχ^YbbR) (domain or fragment, human, UniProt Q16236 451-567, looked up)
chain: EAHLTRDELRAKALHIPFPVEKIINLPVVDFNEMMSKEQFNEAQLALIRDIRRRGKNKVAAQNCRKRKLENIVELEQDLDHLKDEKEKLLKEKGENDKSLHLLKKQLSTLYLEVFSM
notes: The linker stays on this chain and gives the supershift; also called NRF2^DBD-6xHis-TEV; NRF2 of NRF2/sMafG^YbbR; source: cut from the chimera by TEV in the assay; not shown: linker with 6xHis (3C site removed, up to the TEV site), C-terminal, kept
Consider B3, for which the binding result in data set [2] was “binds”.

B4: NRF2^DBD (domain or fragment, human, UniProt Q16236 451-567, looked up)
chain: EAHLTRDELRAKALHIPFPVEKIINLPVVDFNEMMSKEQFNEAQLALIRDIRRRGKNKVAAQNCRKRKLENIVELEQDLDHLKDEKEKLLKEKGENDKSLHLLKKQLSTLYLEVFSM
notes: The His-tag is called cleavable; TEV and 3C proteases were present in the EMSA samples; also called NRF2^DBD-3C-6xHis; source: E. coli One Shot BL21 Star (DE3), purified (His-tag purification, heparin)
In the case of B4, the binding result in data set [2] is “binds”.

B5: NRF2^DBD released by 3C from NRF2-sMafGχ (domain or fragment, human, UniProt Q16236 451-567, looked up)
chain: EAHLTRDELRAKALHIPFPVEKIINLPVVDFNEMMSKEQFNEAQLALIRDIRRRGKNKVAAQNCRKRKLENIVELEQDLDHLKDEKEKLLKEKGENDKSLHLLKKQLSTLYLEVFSM
notes: also called NRF2 of NRF2/sMafG; source: E. coli One Shot BL21 Star (DE3), purified as the chimera (HisTrap, heparin, SEC); cut from the chimera by 3C and TEV in the assay; not shown: linker with 3C site and 6xHis, C-terminal, cleaved
For the molecule B5, the binding result in data set [1] is reported as “binds”.

B6: BACH1^DBD (domain or fragment)
chain: not shown
notes: The His-tag is called cleavable; TEV and 3C proteases were present in the EMSA samples; also called BACH1^DBD-3C-6xHis; source: E. coli One Shot BL21 Star (DE3), purified (HisTrap, heparin, SEC)
B6: the “stoichiometry N” value in data set [3] was 2. Also, the binding result in data set [2] is on record as “binds”.
